One molecule from article PMC8660800 can be followed below.

For the assay, the target named is NOT9 module of the human CCR4-NOT complex (human) (UniProt Q92600).

B1: MBP-RNF219-C (residues 434-726) with a C-terminal StrepII tag (domain or fragment)
chain: SSNVSNKDSSEDDISRSENEKKSECFSSPKTGFWDCCSTSYAQNLDFESSEGNTIANSVGEISSKLSEKSGLCLSKRLNSIRSFEMNRTRTSSEASMDAAYLDKISELDSMMSESDNSKSPCNNGFKSLDLDGLSKSSQGSEFLEEPDKLEEKTELNLSKGSLTNDQLENGSEWKPTSFFLLSPSDQEMNEDFSLHSSSCPVTNEIKPPSCLFQTEFSQGILLSSSHRLFEDQRFGSSLFKMSSEMHSLHNHLQSPWSTSFVPEKRNKNVNQSTKRKIQSSLSSASPSKATKS
Take B1: the inhibition of deadenylation by 50 nM CCR4-NOT MINI (50 nM 7-mer-A20 RNA, stopped after 32 min), MBP-RNF219-C titrated 0.05-5.0 µM; inhibition already apparent at 0.05 µM was 2.5 µM.
